Assay results published in patent publication US20040265972A1 (published 2004).

Molecular target: T1, human TSH receptor stably expressed on Chinese Hamster Ovary (CHO) cells (CHO-hTSHR clone JP09 and clone JP26) (human, UniProt P16473 21-764)
T1 construct: whole, on cells; also called hTSH receptor; CHO-JPO9
Assay: told in words; bioactivity assay on CHO-JPO9 cells expressing the TSH receptor

B1: mutant TSH heterodimer of wild type human common α-subunit and mutant human TSH-β subunit βE6N (ligand)
alpha: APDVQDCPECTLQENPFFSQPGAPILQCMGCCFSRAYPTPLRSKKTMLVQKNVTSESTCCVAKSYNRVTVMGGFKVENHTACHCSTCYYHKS
beta: FCIPTNYTMHIERRECAYCLTINTTICAGYCMTRDINGKLFLPKYALSQDVCTYRDFIYRTVEIPGCPLHVAPYFSYPVALSCKCGKCNTDYSDCIHEAIKTNYCTKPQKSYLVGFSV
modifications: Both subunits are N-glycosylated (secreted from CHO-K1 cells). They form a noncovalent heterodimer. The letters carry neither feature.
notes: Transiently expressed in CHO-K1 cells
  binding result: binds
